Blank lines part the entries; values can stand above or below the binder they belong to.
Biological target: human beta-tryptase (human, UniProt Q15661)
Assay: BLI steady state

human beta-tryptase, sequence (Q15661 31-275): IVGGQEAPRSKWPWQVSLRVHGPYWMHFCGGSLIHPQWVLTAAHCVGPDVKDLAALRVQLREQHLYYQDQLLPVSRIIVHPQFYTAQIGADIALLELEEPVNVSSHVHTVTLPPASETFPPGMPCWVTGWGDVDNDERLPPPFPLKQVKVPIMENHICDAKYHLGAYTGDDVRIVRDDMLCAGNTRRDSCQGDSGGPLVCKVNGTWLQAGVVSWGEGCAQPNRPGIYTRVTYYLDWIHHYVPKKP

Kd: 3.16 nM
B1: E104.v1 6DS (LC.F116C.Q124C.HC.F126C.A141C) (antibody, V domains shown)
VH: EVQLVESGPGCVKPSETLSLTCTVSRFSLIGYAITWIRQPPGKGLEWIGGISSAATTFYSSWAKSRVTISVDTSKNQFSLKLSSVTAADTAVYYCARDPRGYGAALDRLDLWGQGTCVTVSS
VL: DIQMTQSPSSLSASVGDRVTITCQSIKSVYNNRLGWYQQKCGKAPKLLIYETSILTSGVPSRFSGSGSGTDFTLTISSLQCEDFATYYCAGGFDRSGDTTFGQGTKVEIKR

Kd: 1.63 nM
B2: E104.v1 4DS (antibody, V domains shown)
VH: B1 VH
VL: B1 VL
